Experiments:
[1] = molecular target: human 4-1BB on the surface of HEK293-Hu4-1BB cells (human) (UniProt Q07011); test: FACS on HEK293 cells highly expressing human 4-1BB
[2] = molecular target: human 4-1BB on the surface of HEK293-Hu4-1BB cells (human) (UniProt Q07011); test: cell-based or functional assay

Sequence of human 4-1BB on the surface of HEK293-Hu4-1BB cells (human) (Q07011 24-255): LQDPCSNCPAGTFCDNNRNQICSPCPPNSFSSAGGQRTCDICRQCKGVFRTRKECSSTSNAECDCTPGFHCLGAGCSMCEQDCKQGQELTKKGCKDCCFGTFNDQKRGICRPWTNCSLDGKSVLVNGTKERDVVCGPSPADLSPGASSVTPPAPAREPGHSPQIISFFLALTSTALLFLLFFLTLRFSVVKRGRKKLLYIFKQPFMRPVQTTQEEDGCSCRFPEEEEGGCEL

- Maximal fluorescence value [1]: 67
- Emax, 4-1BB/NF-κB luciferase reporter, FcγRIIb cross-linking (relative to antibody-free group) [2]: 1.12
- Emax, 4-1BB/NF-κB luciferase reporter, no FcγRIIb cross-linking (relative to antibody-free group) [2]: 1.1
Substance: isotype IgG1 antibody

— US20250026842A1
